Assay results taken from US20100009014A1, “Use of composition for manufacture of medicant and method for inhibiting formation of body fat” (Maxluck Biotechnology Corp., priority 2008, published 2010).

Test: Epididymal fat weight and body weight, lactoferrin vs trivalent chromium vs combination (Test Example 5)
Assay type: in vivo, C57BL/6JNarl mice
Conditions: fed 7 weeks; for Body weight / Epididymal fat weight: high-fat diet
Procedure: The C57BL/6JNarl mice (N=70) are fed with a mouse diet (high-fat Rodent TestDiet, PMI Nutrition International Inc., MO, U.S.A.; 67% of calories provided by fat). The C57BL/6JNarl mice are randomly divided into seven groups and there are ten mice in each group. In one experimental group, the mice are fed with the mouse diet mixed with lactoferrin (NZMP lactoferrin, New Zealand, low dose: 40 mg/kg BW/day, high dose: 80 mg/kg BW/day). In another experimental group, the mice are fed with the mouse diet mixed with trivalent chromium (chromium (III) chloride hexahydrate, low dose: 40 μg/kg BW/day Cr^3+, high dose: 80 μg/kg BW/day Cr^3+). In yet another experimental group, the mice are fed with the mouse diet mixed with a lactoferrin/trivalent chromium composition (low dose: lactoferrin of 40 mg/kg BW/day with Cr^3+ of 40 μg/kg BW/day, high dose: lactoferrin of 80 mg/kg BW/day with Cr^3+ of 80 μg/kg BW/day). In the control group, the mice are fed with the mouse diet containing no other additive. The C57BL/6JNarl mice aged 8 weeks are fed for 7 weeks and then sacrificed to measure the weight of Epididymal fat and body weight, as shown in Table 5.
Accordingly, it can be known that the lactoferrin/trivalent chromium composition provides more significant efficiency in comparison to single lactoferrin or trivalent chromium.

[1] = High dose (lactoferrin 80 mg/kg BW/day and/or Cr3+ 80 μg/kg BW/day)
[2] = Low dose (lactoferrin 40 mg/kg BW/day and/or Cr3+ 40 μg/kg BW/day)

B1: Lactoferrin: NZMP lactoferrin, New Zealand; glycoprotein capable of binding metal ions, given alone as comparison (protein, UniProt P24627 20-708, looked up)
Lactotransferrin: APRKNVRWCTISQPEWFKCRRWQWRMKKLGAPSITCVRRAFALECIRAIAEKKADAVTLDGGMVFEAGRDPYKLRPVAAEIYGTKESPQTHYYAVAVVKKGSNFQLDQLQGRKSCHTGLGRSAGWIIPMGILRPYLSWTESLEPLQGAVAKFFSASCVPCIDRQAYPNLCQLCKGEGENQCACSSREPYFGYSGAFKCLQDGAGDVAFVKETTVFENLPEKADRDQYELLCLNNSRAPVDAFKECHLAQVPSHAVVARSVDGKEDLIWKLLSKAQEKFGKNKSRSFQLFGSPPGQRDLLFKDSALGFLRIPSKVDSALYLGSRYLTTLKNLRETAEEVKARYTRVVWCAVGPEEQKKCQQWSQQSGQNVTCATASTTDDCIVLVLKGEADALNLDGGYIYTAGKCGLVPVLAENRKSSKHSSLDCVLRPTEGYLAVAVVKKANEGLTWNSLKDKKSCHTAVDRTAGWNIPMGLIVNQTGSCAFDEFFSQSCAPGADPKSRLCALCAGDDQGLDKCVPNSKEKYYGYTGAFRCLAEDVGDVAFVKNDTVWENTNGESTADWAKNLNREDFRLLCLDGTRKPVTEAQSCHLAVAPNHAVVSRSDRAAHVKQVLLHQQALFGKNGKNCPDKFCLFKSETKNLLFNDNTECLAKLGGRPTYEEYLGTEYVTAIANLKKCSTSPLLEACAFLTR
Question: Which Body weight [1] does the source give for B1 here?
Answer: 27.9 ± 1.37 g

Question: And the Epididymal fat weight [1]?
Answer: 0.82 ± 0.2 g

Question: And the Body weight [2]?
Answer: 27.7 ± 2.19 g

Question: And the Epididymal fat weight [2]?
Answer: 0.72 ± 0.28 g

Question: What about the “Epididymal fat weight and body weight vs control group (in words)” value of the same molecule?
Answer: cannot achieve significant efficiency
